Legend:
[1] = tested on: HalTzlTCCCAG (synthetic (no organism)); assay: fluorescence anisotropy; details: Fluorescence anisotropy: 100 nM FAM-TAR in TB buffer, 25 °C, 20 min, ex 480/em 518 nm, one-site fit; CD: 5 µM TAR with 50 µM nucleopeptide (Methods; abstract …)
[2] = tested on: HalTzlAGA (synthetic (no organism)); assay: fluorescence anisotropy; details: Fluorescence anisotropy: 100 nM FAM-TAR in TB buffer, 25 °C, 20 min, ex 480/em 518 nm, one-site fit; CD: 5 µM TAR with 50 µM nucleopeptide (Methods; abstract …)

“CCAGAUCUGAGCCUGGGAGCUCUCUGG [5'-FAM(6)-TAR UCU]” was tested, and the Kd [1] was 38.3 µM and the Kd [2] was 256 µM.

From article PMC10968536
